This assay addresses human folate receptor 1 (FOLR1) (human).

With MorAb-003 (Farletuzumab) (antibody), the EC50 of ADCC activity on IGROV-1 cells is 0.16 ng/mL.

For the origin of these results see patent US20120009181A1.
